These results are taken from publication PMC4891050, “A novel small-molecule compound targeting CD147 inhibits the motility and invasion of hepatocellular carcinoma cells” (Oncotarget, 2016).

Broadly, the stoichiometry N is a count of units in the complex or per binding partner.

Series [1] deals with T1, wild-type CD147 extracellular portion (residues 22-205) tagged with 6 x His, P35613.
T1 chain: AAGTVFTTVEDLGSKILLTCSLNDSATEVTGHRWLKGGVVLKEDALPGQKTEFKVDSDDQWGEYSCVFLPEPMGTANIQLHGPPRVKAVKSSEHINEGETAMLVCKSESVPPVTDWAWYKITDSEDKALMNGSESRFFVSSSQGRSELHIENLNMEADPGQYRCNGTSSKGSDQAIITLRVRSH
In words: native gel or EMSA; non-denaturing SDS-PAGE: 5 ug purified protein with DMSO or AC-73 (0, 0.1, 0.25 or 0.5 uM), 5x Laemmli sample buffer lacking SDS, 10% SDS-PAGE without boiling, immunoblot with anti-His6; monomer and dimer bands. The note with it: remark: other sources report otherwise. Background: Mobility shift assays separate free from complexed probe on a gel.

Series [2] concerns the molecule itself. Described as above.

B1: wild-type CD147 extracellular portion (residues 22-205) tagged with 6 x His, P35613-2 22-205 (domain or fragment)
chain: AAGTVFTTVEDLGSKILLTCSLNDSATEVTGHRWLKGGVVLKEDALPGQKTEFKVDSDDQWGEYSCVFLPEPMGTANIQLHGPPRVKAVKSSEHINEGETAMLVCKSESVPPVTDWAWYKITDSEDKALMNGSESRFFVSSSQGRSELHIENLNMEADPGQYRCNGTSSKGSDQAIITLRVRSH
In series [1], B1 gave a stoichiometry N of 2.

B2: CD147 mutant E64A, extracellular portion tagged with 6 x His (domain or fragment, UniProt P35613-2 22-205, looked up)
chain: AAGTVFTTVEDLGSKILLTCSLNDSATEVTGHRWLKGGVVLKADALPGQKTEFKVDSDDQWGEYSCVFLPEPMGTANIQLHGPPRVKAVKSSEHINEGETAMLVCKSESVPPVTDWAWYKITDSEDKALMNGSESRFFVSSSQGRSELHIENLNMEADPGQYRCNGTSSKGSDQAIITLRVRSH
notes: CD147 (EMMPRIN, HAb18G/CD147), extracellular portion, residues 22-205 as for CD147wt, with E64A; also called CD147mt; CD147mts; source: prokaryotic expression system, purified
As for B2, the binding result in series [2] is on record as “binds”.

B3: CD147 mutant E73A, extracellular portion tagged with 6 x His (domain or fragment, UniProt P35613-2 22-205, looked up)
chain: AAGTVFTTVEDLGSKILLTCSLNDSATEVTGHRWLKGGVVLKEDALPGQKTAFKVDSDDQWGEYSCVFLPEPMGTANIQLHGPPRVKAVKSSEHINEGETAMLVCKSESVPPVTDWAWYKITDSEDKALMNGSESRFFVSSSQGRSELHIENLNMEADPGQYRCNGTSSKGSDQAIITLRVRSH
notes: CD147 (EMMPRIN, HAb18G/CD147), extracellular portion, residues 22-205 as for CD147wt, with E73A; also called CD147mt; CD147mts; source: prokaryotic expression system, purified
Consider B3, for which the binding result in series [2] was “binds”.
